Data set [1] deals with MCF7. Kind of data set: percentage of EdU-negative (G0-arrested) nuclei per well, 72 h; higher = more G0 arrest. The following applies: reference: sequence is the full UniProt precursor, the tested protein was the secreted form or ectodomain.
The test system of data set [2] is hTERT-HMEC. The description is as above. As to conditions: reference: sequence is the full UniProt precursor, the tested protein was the secreted form or ectodomain.
[3] abbreviates: protein concentration 0.03125 µM.
[4] abbreviates: protein concentration 0.3125 µM.
Where [5] appears, read: protein concentration 0.0165575 µM.
Where [6] appears, read: protein concentration 0.165575 µM.
Setting [7] is: protein concentration 0.0225 µM.
Setting [8] is: protein concentration 0.01425 µM.
The mark [9] stands for this setting: protein concentration 0.1425 µM.

± gives the standard deviation of the averaged measurements.

Here are results for five sequences from the supplement of paper PMC11316812.
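Note: secreted proteins added to cultured cells, EdU pulse at the end, nuclei found by Hoechst imaging, EdU status from nuclear versus surrounding ring intensity ratio, PBS as neutral control.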

For “MGLLLPLALCILVLCCGAMSPPQLALNPSALLSRGCNDSDVLAVAGFALRDINKDRKDGYVLRLNRVNDAQEYRRGGLGSLFYLTLDVLETDCHVLRKKAWQDCGMRIFFESVYGQCKAIFYMNNPSRVLYLAAYNCTLRPVSKKKIYMTCPDCPSSIPTDSSNHQVLEAATESLAKYNNENTSKQYSLFKVTRASSQWVVGPSYFVEYLIKESPCTKSQASSCSLQSSDSVPVGLCKGSLTRTHWEKFVSVTCDFFESQAPATGSENSAVNQKPTNLPKVEESQQKNTPPTDSPSKAGPRGSVQYLPDLDDKNSQEKGPQEAFPVHLDLTTNPQGETLDISFLFLEPMEEKLVVLPFPKEKARTAECPGPAQNASPLVLPP [Q9UGM5]”, the “percentage of EdU-negative” value was determined as 26.5 ± 2.8% in data set [1] (setting [3]), 27.9 ± 0.97% in data set [1] (setting [4]), 5.24 ± 0.29% in data set [2] (setting [3]) and 7.43 ± 0.49% in data set [2] (setting [4]).
For the sequence “MGLLSAPPCTQRITWKGLLLTASLLNFWNPPTTAQVTIEAQPTKVSEGKDVLLLVHNLPQNLTGYIWYKGQIRDLYHYITSYVVDGQIIIYGPAYSGRETIYSNASLLIQNVTQEDAGSYTLHIIMGGDENRGVTGHFTFTLYLETPKPSISSSKLNPREAMEAVSLTCDPETPDASYLWWMNGQSLPMSHRLQLSETNRTLFLLGVTKYTAGPYECEIRNPVSASRSDPFTLNLLPKLPKPYITINNLKPRENKDVLNFTCEPKSENYTYIWWLNGQSLPVSPRVKRPIENRILILPSVTRNETGPYQCEIRDQYGGIRSYPVTLNVLYGPDLPRIYPSFTYYRSGEVLYLSCSADSNPPAQYSWTINGKFQLSGQKLFIPQITTKHSGLYACSVRNSATGKESSKSMTVKVSGKRIPVSLAIGI [Q9UQ74]”, the “percentage of EdU-negative” value in data set [1] (setting [5]) was 26.7 ± 1%; in data set [1] (setting [6]), 31.5 ± 1.5%; in data set [2] (setting [5]), 4.16 ± 0.38%; in data set [2] (setting [6]) it was 6.44 ± 0.53%.
As to “MGLQACLLGLFALILSGKCSYSPEPDQRRTLPPGWVSLGRADPEEELSLTFALRQQNVERLSELVQAVSDPSSPQYGKYLTLENVADLVRPSPLTLHTVQKWLLAAGAQKCHSVITQDFLTCWLSIRQAELLLPGAEFHHYVGGPTETHVVRSPHPYQLPQALAPHVDFVGGLHRFPPTSSLRQRPEPQVTGTVGLHLGVTPSVIRKRYNLTSQDVGSGTSNNSQACAQFLEQYFHDSDLAQFMRLFGGNFAHQASVARVVGQQGRGRAGIEASLDVQYLMSAGANISTWVYSSPGRHEGQEPFLQWLMLLSNESALPHVHTVSYGDDEDSLSSAYIQRVNTELMKAAARGLTLLFASGDSGAGCWSVSGRHQFRPTFPASSPYVTTVGGTSFQEPFLITNEIVDYISGGGFSNVFPRPSYQEEAVTKFLSSSPHLPPSSYFNASGRAYPDVAALSDGYWVVSNRVPIPWVSGTSASTPVFGGILSLINEHRILSGRPPLGFLNPRLYQQHGAGLFDVTRGCHESCLDEEVEGQGFCSGPGWDPVTGWGTPNFPALLKTLLNP”, the “percentage of EdU-negative” value is 25.3 ± 1.4% in data set [1] (setting [7]), 27.9 ± 4.2% in data set [1] (protein concentration 0.225 µM), 5.11 ± 0.24% in data set [2] (setting [7]) and 10.72 ± 0.011% in data set [2] (protein concentration 0.225 µM).
In the case of “MGLQTTKWPSHGAFFLKSWLIISLGLYSQVSKLLACPSVCRCDRNFVYCNERSLTSVPLGIPEGVTVLYLHNNQINNAGFPAELHNVQSVHTVYLYGNQLDEFPMNLPKNVRVLHLQENNIQTISRAALAQLLKLEELHLDDNSISTVGVEDGAFREAISLKLLFLSKNHLSSVPVGLPVDLQELRVDENRIAVISDMAFQNLTSLERLIVDGNLLTNKGIAEGTFSHLTKLKEFSIVRNSLSHPPPDLPGTHLIRLYLQDNQINHIPLTAFSNLRKLERLDISNNQLRMLTQGVFDNLSNLKQLTARNNPWFCDCSIKWVTEWLKYIPSSLNVRGFMCQGPEQVRGMAVRELNMNLLSCPTTTPGLPLFTPAPSTASPTTQPPTLSIPNPSRSYTPPTPTTSKLPTIPDWDGRERVTPPISERIQLSIHFVNDTSIQVSWLSLFTVMAYKLTWVKMGHSLVGGIVQERIVSGEKQHLSLVNLEPRSTYRICLVPLDAFNYRAVEDTICSEATTHASYLNNGSNTASSHEQTTSHSMGSPFLLAGLIGGAVIFVLVVLLSVFCWHMHKKGRYTSQKWKYNRGRRKDDYCEAGTKKDNSILEMTETSFQIVSLNNDQLLKGDFRLQPIYTPNGGINYTDCHIPNNMRYCNSSVPDLEHCHT”, the “percentage of EdU-negative” value was determined as 22.9 ± 1.9% in data set [1] (setting [8]), 27 ± 0.45% in data set [1] (setting [9]), 6.49 ± 1.2% in data set [2] (setting [8]) and 7.12 ± 0.37% in data set [2] (setting [9]).
Take “MGLSTVPDLLLPLVLLELLVGIYPSGVIGLVPHLGDREKRDSVCPQGKYIHPQNNSICCTKCHKGTYLYNDCPGPGQDTDCRECESGSFTASENHLRHCLSCSKCRKEMGQVEISSCTVDRDTVCGCRKNQYRHYWSENLFQCFNCSLCLNGTVHLSCQEKQNTVCTCHAGFFLRENECVSCSNCKKSLECTKLCLPQIENVKGTEDSGTTVLLPLVIFFGLCLLSLLFIGLMYRYQRWKSKLYSIVCGKSTPEKEGELEGTTTKPLAPNPSFSPTPGFTPTLGFSPVPSSTFTSSSTYTPGDCPNFAAPRREVAPPYQGADPILATALASDPIPNPLQKWEDSAHKPQSLDTDDPATLYAVVENVPPLRWKEFVRRLGLSDHEIDRLELQNGRCLREAQYSMLATWRRRTPRREATLELLGRVLRDMDLLGCLEDIEEALCGPAALPPAPSLLR”: the “percentage of EdU-negative” value in data set [1] (setting [3]) came to 24.9 ± 3.4%; in data set [1] (setting [4]) it was 25.5 ± 0.84%; in data set [2] (setting [3]), 4.76 ± 0.43%; in data set [2] (setting [4]) it was 5.34 ± 0.28%.
